From US20090175863A1 (BIOTEST, published 2009)
Where “and” joins values, the source holds several entries; their conditions need not be identical. Equal entries are not always repeated.

T1: CD138 expressed on the cell surface (OPM-2 cells, MOLP-8 cells) (human, UniProt P18827 23-310)
T1 construct: whole, on cells; also called syndecan-1; CD138+ OPM-2
T1 sequence (looked up): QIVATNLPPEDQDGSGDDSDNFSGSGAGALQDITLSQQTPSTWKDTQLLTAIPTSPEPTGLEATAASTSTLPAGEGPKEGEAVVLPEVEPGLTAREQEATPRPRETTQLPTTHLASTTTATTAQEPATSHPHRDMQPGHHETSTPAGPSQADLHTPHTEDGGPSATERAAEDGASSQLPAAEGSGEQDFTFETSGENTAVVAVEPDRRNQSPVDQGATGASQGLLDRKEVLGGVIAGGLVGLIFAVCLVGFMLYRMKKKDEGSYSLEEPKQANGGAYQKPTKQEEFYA

T2: Soluble CD138 antigen purified from U-266 cell culture supernatant, biotinylated (human, UniProt P18827 23-245, limits assumed, biotinylated with Sulfo-NHS-LC-Biotin on primary amino groups (lysine residues); positions not stated)
T2 construct: Natural soluble (shed) CD138 captured on a streptavidin sensor chip; also called bCD138; biotinylated CD138
T2 sequence (looked up): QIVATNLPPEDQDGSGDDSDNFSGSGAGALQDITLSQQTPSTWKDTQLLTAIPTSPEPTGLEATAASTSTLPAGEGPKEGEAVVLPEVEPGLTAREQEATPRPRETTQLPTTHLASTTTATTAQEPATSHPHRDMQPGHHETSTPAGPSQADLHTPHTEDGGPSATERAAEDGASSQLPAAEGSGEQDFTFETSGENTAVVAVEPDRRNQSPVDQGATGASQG


Tests used:
[1] = target: T1, CD138 expressed on the cell surface …; experiment: FACS on CD138+ OPM-2 cells, fluorescence-labeled secondary antibody, mean fluorescence against concentration
Excerpt: The mean fluorescence measured in these experiments was plotted against the antibody concentration.
In FIG. 6, the mean fluorescences as measure for the amount of cell bound antibody is plotted against different antibody or conjugate concentrations.

[2] = target: T2, Soluble CD138 antigen purified from …; experiment: SPR (BIACORE C), biotinylated CD138 on SA chip, conjugate as analyte; mean of three experiments, +/- SD
[3] = target: T2, Soluble CD138 antigen purified from …; experiment: SPR (BIACORE C), biotinylated CD138 on SA chip, conjugate as analyte; single experiment

| EC50 (read off the curve) [1] [nM] | Kd [2] [nM] | Kd [3] | Binder |
| --- | --- | --- | --- |
| ~1 | – | – | nBT062-SPP-DM1 (antibody, V domains shown) VH: QVQLQQSGSELMMPGASVKISCKATGYTFSNYWIEWVKQRPGHGLEWIGEILPGTGRTIYNEKFKGKATFTADISSNTVQMQLSSLTSEDSAVYYCARRDYYGNFYYAMDYWGQGTSVTVSS VL: DIQMTQSTSSLSASLGDRVTISCSASQGINNYLNWYQQKPDGTVELLIYYTSTLQSGVPSRFSGSGSGTDYSLTISNLEPEDIGTYYCQQYSKLPRTFGGGTKLEIKR |
| ~1 | – | – | nBT062-SMCC-DM1 (antibody, V domains shown) VH: QVQLQQSGSELMMPGASVKISCKATGYTFSNYWIEWVKQRPGHGLEWIGEILPGTGRTIYNEKFKGKATFTADISSNTVQMQLSSLTSEDSAVYYCARRDYYGNFYYAMDYWGQGTSVTVSS VL: DIQMTQSTSSLSASLGDRVTISCSASQGINNYLNWYQQKPDGTVELLIYYTSTLQSGVPSRFSGSGSGTDYSLTISNLEPEDIGTYYCQQYSKLPRTFGGGTKLEIKR |
| ~1 | – | – | nBT062 (antibody, human IgG4, kappa, V domains shown, also called cB-B4; chimeric B-B4) VH: QVQLQQSGSELMMPGASVKISCKATGYTFSNYWIEWVKQRPGHGLEWIGEILPGTGRTIYNEKFKGKATFTADISSNTVQMQLSSLTSEDSAVYYCARRDYYGNFYYAMDYWGQGTSVTVSS VL: DIQMTQSTSSLSASLGDRVTISCSASQGINNYLNWYQQKPDGTVELLIYYTSTLQSGVPSRFSGSGSGTDYSLTISNLEPEDIGTYYCQQYSKLPRTFGGGTKLEIKR |
| – | 2.6 | 2.6 nM and 2.7 nM | B-B4-SPP-DM1 (antibody, V domains shown) VH: QVQLQQSGSELMMPGASVKISCKATGYTFSNYWIEWVKQRPGHGLEWIGEILPGTGRTIYNEKFKGKATFTADISSNTVQMQLSSLTSEDSAVYYCARRDYYGNFYYAMDYWGQGTSVTVSS VL: DIQMTQSTSSLSASLGDRVTISCSASQGINNYLNWYQQKPDGTVELLIYYTSTLQSGVPSRFSGSGSGTDYSLTISNLEPEDIGTYYCQQYSKLPRTFGGGTKLEIK |
